Source: PMC10135883, “Structural Basis of the Interaction between Human Axin2 and SIAH1 in the Wnt/β-Catenin Signaling Pathway” (Biomolecules, 2023)
Positions count from the first letter of the chain named. Names and notes keep the numbering of the source. Blank lines part the entries; values can stand above or below the molecule they belong to.

Legend:
[1] = biological target: SIAH1-SBD (89-282) F165A (human) (UniProt Q8IUQ4); experiment: ITC; ITC200, 25 °C; 20 mM Tris-HCl pH8.0, 100 mM NaCl; 330 μM Axin2 peptide injected into 30 μM SIAH1; single binding site model
[2] = biological target: SIAH1-SBD (substrate-binding domain of E3 ubiquitin-protein ligase SIAH1, residues 89-282) (human) (UniProt Q8IUQ4); experiment: as above
[3] = biological target: T1, SIAH1-SBD (substrate-binding domain of E3 ubiquitin-protein ligase SIAH1, residues 89-282) (human, UniProt Q8IUQ4-1 89-282); experiment: BLI; Octet Red96; GST-Axin2-GBD or its deletion loaded onto GST biosensors, quenched with GST; dipped into SIAH1-SBD at 0.03-30 μM; free-GST biosensors as controls; conditions: both partners purified
T1 construct: Cloned from HeLa cDNA into pET28a with a TEV site at the N-terminal; The PDB code is printed as 8HEO in the results and as 8HE0 in the data availability statement; also called SIAH1-SBD_(89–282); SBD of SIAH1; source: E. coli BL21(DE3), purified (Ni-NTA, His-tag cleavage by TEV, Ni-NTA, HiTrap Q, Superdex 200); not shown: His tag, N-terminal, cleaved
T1 sequence (looked up): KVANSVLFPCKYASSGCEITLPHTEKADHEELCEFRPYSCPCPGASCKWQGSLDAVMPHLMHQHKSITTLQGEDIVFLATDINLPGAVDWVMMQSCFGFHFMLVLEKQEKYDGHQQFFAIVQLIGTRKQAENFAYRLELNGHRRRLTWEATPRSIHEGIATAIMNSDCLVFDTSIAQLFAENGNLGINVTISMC

[4] = biological target: T2, SIAH1-SBD (substrate-binding domain of E3 ubiquitin-protein ligase SIAH1, residues 89-282) (human, UniProt Q8IUQ4-1 89-282); experiment: ITC
T2 chain: T1 sequence (looked up)

[5] = biological target: T1, SIAH1-SBD (substrate-binding domain of …); experiment: crystal structure; SIAH1-SBD mixed with Axin2 (356–376) at a molar ratio of 1:5; 0.1 M Bis-tris propane pH8.4, 24% PEG6000, 4 °C; 2.53 Å; conditions: both partners purified
[6] = biological target: T3, wt Axin2_(356–368) peptide used in ITC, Q9Y2T1; experiment: ITC; conditions: chain shown with the change;; parent: 8.77
T3 chain: HRLPKEMTPVEPA

Kd [1]: 14.4 µM
Kd [2]: 8.77 µM
stoichiometry N [2]: 1
Molecule: wt Axin2_(356–368) peptide used in ITC (from UniProt Q9Y2T1 356-368)

Kd [2]: 97.1 µM
Molecule: Axin2_(356–368) E366A (from UniProt Q9Y2T1 356-368) (peptide)

Kd [3]: ~2.2 µM
B1: GST-Axin2-GBD (GSK3 binding domain of Axin2, residues 334-432, with a GST-tag) (domain or fragment, human, UniProt Q9Y2T1 334-432, looked up)
chain: QREMHRSVKANGQVSLPHFPRTHRLPKEMTPVEPATFAAELISRLEKLKLELESRHSLEERLQQIREDEEREGSELTLNSREGAPTQHPLSLLPSGSYE
notes: pGEX-6p-1 construct; also called Axin-GDB; source: E. coli BL21 (DE3), purified (glutathione sepharose 4B); not shown: GST, N-terminal, kept

Kd [4]: 8.7 µM
B2: Axin2_(356–368) single mutant T363A (peptide)
chain: HRLPKEMAPVEPATFAAELIS

binding result [5]: binds
B3: Axin2 (residues 356–376) (peptide, UniProt Q9Y2T1 356-376, looked up)
chain: HRLPKEMTPVEPATFAAELIS
notes: human Axin2 (GenBank NM_004655.4), residues 356-376 within the GBD; also called Axin2_(356–376); Axin2 peptide; source: E. coli BL21 (DE3), purified (glutathione sepharose 4B, GST removed by PreScission protease, Superdex 75); not shown: GST, N-terminal, cleaved

Kd [6]: 9.1 µM
B4: SIAH1-SBD (substrate-binding domain of E3 ubiquitin-protein ligase SIAH1, residues 89-282), Q8IUQ4-1 Q159A (protein)
chain: T1 sequence (looked up) with Q71A

Kd [6]: 10.5 µM
B5: SIAH1-SBD (substrate-binding domain of E3 ubiquitin-protein ligase SIAH1, residues 89-282), Q8IUQ4-1 T156A (protein)
chain: T1 sequence (looked up) with T68A
